Tests used:
[1] = system: E. coli BK2118 (tag, alkA); assay: MMS complementation assay; format: cell-based, Escherichia coli; details: pUC18 constructs, 1 mM to 5 mM MMS plates, 2 days, 37°C
[2] = Thermal denaturation by circular dichroism; format: physicochemical; details: thermal denaturation curves, CD
Experimental: Secondary structure and temperature stability of recombinant proteins were determined by recording circular dichroism spectra (CD) on a Jasco J-815 spectropolarimetar (JASCO, Easton, MD, USA) with automatic temperature control according to Jajčanin-Jozić et al.. Analysis of protein secondary structure from CD spectra was performed by using the CDSSTR program at the DICHROWEB site (http://public-1.cryst.bbk.ac.uk/cdweb/html). Protein concentrations were determined by the Bradford method.

B1: PgDPP III: full-length dipeptidyl peptidase III from P. gingivalis W83 (PG_0317), 886 aa (protein)
chain: MTKETTQHRSGERIARFADIEVLSYRADLFGTLTPKQRMLCYHLSEAALRGRDITTIQNCRYNLWVRSLMERIYTHLSKSERTDDFALLEEYLFCIWFANGIHHHYSGAKFIARFSPGFLRAALREAGVELEPEEQVLLERVLYDTDFLPKQTEQSGEEDIIKASSVNFYAPGITRAEAESHYKNLIEALPENEKSCPPSFGLNTRLIRSTSGELKDEVCCIDGLYGPAIEAVVASLEAAIPYTENEEQAACIRLLCDYYRTGDIRLYDRFCIRWVENNRTRIDFINGFTEVYADPIGIHGSWEGLVHMQDEEAGRRTRIISEHAGWFEAHSPIDARFRKKNPHGISATVVNVLTIAGDSYPATPIGINLPNADWIRAEHGSKSVTIDNITDAYNHAARGTGLYEEFIPDEEVRRHVELHADLTDSLHTDLHECLGHGSGQLLPGVPGDALGEHASTLEETRADLFALYFLADPKMIELGLLTDPDAYKANYYKYMLNGLMTQLVRIKRGEEIEEAHMRNRALIARYVLEHAERPGAMSLVCEEGKTALVIKDYEAVRAIIAGLLTEVQRIKSEGDYTAGKALVERYAVHVDPLLHEEVLTRYAKLDIAPYKGFVNPRLRPVYNSEGRLTDATIEYTEGYAEQMLRYSAEYSFLPTDSPLLQEARRLRSHLRRAMDGVLSASMREKGLHYGINFGVTREHLLRLARTADASAPLADYLWRRDVRETKILATMIFPAEELTHEQATRLLREADNVELREQLTANLLERMPEAIRSIGRWIESKETTPDMMTGVLTLAARLFTRGIFPEDVPAEKLLTLAILHLSDEEQKAELRRASALLLKRYGRGSAERTKKVLCLLPESSQDTAPVLYELCEDIRFELDFYPKDE
modifications: left off: His tag, C-terminal, state not stated
In the case of B1, the “rescue of alkylation-sensitive phenotype / alkylation repair function (in words)” value [1] is reported as “absence of any alkylation repair function”, the “rescue of alkylation-sensitive phenotype / alkylation repair function (in words)” value ([1]; listed as full length PgDPP III) is reported as “does not possess alkylation repair function” and the Tm [2] is reported as 50 °C.

Source: article PMC5708649, “A novel Porphyromonas gingivalis enzyme: An atypical dipeptidyl peptidase III with an ARM repeat domain” (PLoS ONE, 2017)
